Data reported in article PMC10119233 (2022).

Target: Recombinant Fc-tagged hDLL4 (human, UniProt Q9NR61 27-529)
Assay: SPR

Sequence of Recombinant Fc-tagged hDLL4 (Q9NR61 27-529): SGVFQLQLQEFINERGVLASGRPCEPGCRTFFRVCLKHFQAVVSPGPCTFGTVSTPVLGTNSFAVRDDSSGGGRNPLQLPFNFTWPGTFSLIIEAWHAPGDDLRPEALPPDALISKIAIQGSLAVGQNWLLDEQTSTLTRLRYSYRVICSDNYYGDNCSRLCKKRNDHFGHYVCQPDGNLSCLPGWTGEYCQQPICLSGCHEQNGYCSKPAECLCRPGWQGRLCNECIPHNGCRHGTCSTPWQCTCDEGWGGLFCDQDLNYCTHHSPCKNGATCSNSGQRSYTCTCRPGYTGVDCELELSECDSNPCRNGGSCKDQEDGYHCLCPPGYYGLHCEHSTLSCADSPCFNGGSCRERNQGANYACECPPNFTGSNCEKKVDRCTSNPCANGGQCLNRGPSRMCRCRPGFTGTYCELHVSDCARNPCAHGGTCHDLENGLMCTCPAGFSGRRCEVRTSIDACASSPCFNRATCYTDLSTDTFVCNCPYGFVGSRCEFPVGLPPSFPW

B1: N4_(10-14)Fc, Notch4 EGF-like repeats 10–14 fused to human IgG Fc (Fc fusion)
chain: RGLLCGSFPEPCANGGTCLSLSLGQGTCQCAPGFLGETCQFPDPCQNAQLCQNGGSCQALLPAPLGLPSSPSPLTPSFLCTCLPGFTGERCQAKLEDPCPPSFCSKRGRCHIQASGRPQCSCMPGWTGEQCQLRDFCSANPCVNGGVCLATYPQIQCHCPPGFEGHACERDVNECFQDPGPCPKGTSCHNTLGSFQCLCPVGQEGPRCELRAGPCPPRGCSNGGTCQLMPEKDSTFHLCLCPPGFIGPDCEVNPDNCVSHQCQNGGTCQDGLDTYTCLCPETWTGWDCSEDVDECETQGPPHCRNGGTCQNSAGSFHCVCVSGWGGTSCEENLDDCIAATCAPGSTCIDRVGSFSCLCPPGRTGLLCHLEDMCLSQPCHGDAQCSTNPLTGSTLCLCQPGYSGPTCHQDLDECLMAQQGPSPCEHGGSCLNTPGSFNCLCPPGYTGSRCEADHNECLSQPCHPGSTCLDLLATFHCLCPPGLEGQLCEVETNECASAPCLNHADCHDLLNGFQCICLPGFSGTRCEEDIDECRSSPCANGGQCQDQPGAFHCKCLPGFEGPRCQTEVDECLSDPCPVGASCLDLPGAFFCLCPSGFTGQLCEVPLCAPNLCQPKQICKDQKDKANCLCPDGSPGCAPPEDNCTCHHGHCQRSSCVCDVGWTGPECEAELGGCISAPCAHGGTCYPQPSGYNCTCPTGYTGPTCSEEMTACHSGPCLNGGSCNPSPGGYYCTCPPSHTGPQCQTSTDYCVSAPCFNGGTCVNRPGTFSCLCAMGFQGPRCEGKLRPSCADSPCRNRATCQDSPQGPRCLCPTGYTGGSCQTLMDLCAQKPCPRNSHCLQTGPSFHCLCLQGWTGPLCNLPLSSCQKAALSQGIDVSSLCHNGGLCVDSGPSYFCHCPPGFQGSLCQDHVNPCESRPCQNGATCMAQPSGYLCQCAPGYDGQNCSKELDACQSQPCHNHGTCTPKPGGFHCACPPGFVGLRCEGDVDECLDQPCHPTGTAACHSLANAFYCQCLPGHTGQWCEVEIDPCHSQPCFHGGTCEATAGSPLGFICHCPKGFEGPTCSHRAPSCGFHHCHHGGLCLPSPKPGFPPRCACLSGYGGPDCLTPPAPKGCGPPSPCLYNGSCSETTGLGGPGFRCSCPHSSPGPRCQKPGAKGCEGRSGDGACDAGCSGPGGNWDGGDCSLGVPDPWKGCPSHSRCWLLFRDGQCHPQCDSEECLFDGYDCETPPACTPAYDQYCHDHFHNGHCEKGCNTAECGWDGGDCRPEDGDPEWGPSLALLVVLSPPALDQQLFALARVLSLTLRVGLWVRKDRDGRDMVYPYPGARAEEKLGGTRDPTYQERAAPQTQPLGKETDSLSAGFVVVMGVDLSRCGPDHPASRCPWDPGLLLRFLAAMAAVGALEPLLPGPLLAVHPHAGTAPPANQLPWPVLCSPVAGVILLALGALLVLQLIRRRRREHGALWLPPGFTRRPRTQSAPHRRRPPLGEDSIGLKALKPKAEVDEDGVVMCSGPEEGEEVGQAEETGPPSTCQLWSLSGGCGALPQAAMLTPPQESEMEAPDLDTRGPDGVTPLMSAVCCGEVQSGTFQGAWLGCPEPWEPLLDGGACPQAHTVGTGETPLHLAARFSRPTAARRLLEAGANPNQPDRAGRTPLHAAVAADAREVCQLLLRSRQTAVDARTEDGTTPLMLAARLAVEDLVEELIAAQADVGARDKWGKTALHWAAAVNNARAARSLLQAGADKDAQDNREQTPLFLAAREGAVEVAQLLLGLGAARELRDQAGLAPADVAHQRNHWDLLTLLEGAGPPEARHKATPGREAGPFPRARTVSVSVPPHGGGALPRCRTLSAGAGPRGGGACLQARTWSVDLAARGGGAYSHCRSLSGVGAGGGPTPRGRRFSAGMRGPRPNPAIMRGRYGVAAGRGGRVSTDDWPCDWVALGACGSASNIPIPPPCLTPSPERGSPQLDCGPPALQEMPINQGGEGKK
  koff: 0.0099 s⁻¹
